Assay results as given in US12414933B2, “Polyphosphazene drug carriers” (ONSELEX PHARMACEUTICALS, INC., priority 2019, dated 2025).

Tested on: Sprague-Dawley rats
Assay: Intravenous toxicity study: maximum tolerated dose after a single IV injection, 7-day observation
Type: in vivo, rat
Description: The objective of this study was to determine the maximum tolerated dose in test animals following a single parenteral administration, in this case an intravenous (IV) injection, of the drug delivery compositions to Sprague-Dawley rats followed by a 7-day observation period.
In this Example, drug delivery compositions were optimized to carry and deliver the active chemotherapeutic agent Paclitaxel (PTX at about 5%). (See, Table 5 infra). Briefly, under sterile conditions in a laminar flow cabinet sterile water for formation and injection purposes was added to the appropriate amount of drug deliver composition to provide concentrations of 350, 817, 1167, and 1750 mg/mL. The diluted drug deliver compositions were stirred, mixed, or vortexed as necessary to achieve sufficient distribution. The prepared drug deliver compositions were stored protect from light at ambient temperature. The final formulation for each concentration was passed through a 0.2 μm filter prior to administration. The target volume prepared for each dose was 1.55 mL. The actual volume dispensed post-filtering was recorded. Final formulations for administration can be used up to 4 hours after preparation.
Subjects in this Example consisted of age appropriate to weight intact male Sprague-Dawley rats. Various commercial sources of Sprague-Dawley rats are acceptable for supply of Subject animals. Maximum Subject animal weight at initiation of the administrations was 330 gm while minimum weight was 260 gm. Subject animals were housed, feed, provided watered ad libitum, and observed according to standard animal husbandry protocols. Subject animals were excluded for any observable disease or injury that could affect study outcome. […]

[NP(MPEG550)3(Lys-OEt)(AA)(PTX)]n [PETTAX-121]
Clinical results: morbidity / euthanasia (Group 4: single slow bolus IV 8750 mg/kg PETTAX-121 (PTX 437.5 mg/kg), 1 male rat): euthanized 20 hours after administration due to observed morbidity
Clinical results: tolerability / adverse reactions (Groups 1-3: single slow bolus IV 1750, 4083 and 5833 mg/kg PETTAX-121 (PTX 87.5, 204.2, 291.7 mg/kg), 1 male rat per group, 7-day observation): tolerated their respective administration well with no observed adverse reactions or clinically significant observations
Clinical results: physical changes (Groups 1-3: single slow bolus IV 1750, 4083 and 5833 mg/kg PETTAX-121, 1 male rat per group, 7-day observation): no significant physical changes
